# Experimental data from the RNAGym collection of RNA variant scans (doi:10.7554/elife.90254).
# B1: OR4K15 (parent)
# chain: GUUAACGGUCAUAGGCCAUGGAAACUAGGAGCACCAUUUCGCUGCCAGUGAAGAAAUGAACAAAGAAAAUCUGGGCCAGGCAGGCAUCAAAAGAAAUAGUCUUGCGCUCAACCAGAAAGUCUGUAAUCAUUUUAAGGGUA
# Variants of: B1
# Test: self-cleavage, relative activity (ratio to wild type); higher = more cleavage; in vitro, sequencing; the parent is a self-cleaving ribozyme
row,Variant,self-cleavage
1,A4U U70C,0.89
2,A4G A52G,1.08
3,U2C A125G,0.55
4,U2A U127C,1.08
5,A4U U132C,2.14
6,U2C U38A,1.07
7,U2C U38C,1.09
8,U3A U127A,1.84
9,U2A G14C,0.7
10,A4G U57C,0.86
11,A4C U87C,0.81
12,U2G A140G,1.09
13,A4U A47G,0
14,U2C U108A,0.01
15,A4G A33G,1.14
16,A4U A96G,1.05
17,U2A U49C,1.68
18,U2C G50U,1.13
19,U2G G93U,1.01
20,A4G A60G,1.27
21,U2C G138A,1.1
22,U2A U102A,1.51
23,A4C,0.61
24,A4G,0.87

row,Variant,self-cleavage
1,A4U,1.19
2,U3C A98C,1.18
3,U3C A98G,0.6
4,A4G U139C,1.21
5,U2G A92G,0.73
6,U2C G74U,0.08
7,U2C G74A,0.18
8,U2G U57C,1.13
9,A4G A18G,1.23
10,U2C A114C,0.03
11,U3G A30G,1.12
12,A4U A118G,1.08
13,A5C G106U,0.07
14,U3C A89U,0.54
15,U3C A89G,0.99
16,U3C U122C,1.32
17,U3A A89G,1.51
18,U2C A116U,0
19,U2C U131G,1.08
20,A4G A55U,1.33
21,A4G A129G,0.78
22,U2G U12C,0.61
23,U2G U12A,1.45
24,U3A U131C,0.64

row,Variant,self-cleavage
1,A4G A135G,1.18
2,U3A A126G,1.73
3,U2C G137U,1.25
4,A4G G14U,0.67
5,U3C A114U,0.04
6,U2C C128A,0.85
7,A4G A59G,1.04
8,U3C A52U,1.8
9,U3C U26C,1.29
10,A5C A30G,0.85
11,U2A U100C,0.89
12,U3A A23G,1.17
13,U2G U130C,0.3
14,A4G G75A,0.33
15,A4U U133C,1.79
16,U2A G106A,0.06
17,U3C U43C,0.78
18,A4G U39A,1.27
19,A4G A51G,1.01
20,U2C U130C,1.06
21,U3A G65U,0.33
22,U3C U132G,0.36
23,U2C U37C,1.26
24,U2C U37G,0.75

row,Variant,self-cleavage
1,A5C A110U,0.95
2,A4G A27G,1.52
3,A5C A59U,1.73
4,U3C A11G,1.34
5,A4G U127C,0.38
6,U2C U49C,1.34
7,U2C U49A,1.5
8,U2C U122A,1.85
9,A4G U122C,0.78
10,A4G U102C,1.36
11,A5C A98G,0.42
12,A4G A36G,1.43
13,U3C A129G,1.14
14,U3C U39G,1.72
15,A4G C85U,0.99
16,U3C U70C,0.76
17,U2C G53U,1.64
18,U2C G7A,1.22
19,U2C G7U,1.2
20,U2C A96G,1.1
21,U3C U103A,0.64
22,A4G C35A,1.14
23,A4G A64C,0.79
24,U2C A51U,0.82

row,Variant,self-cleavage
1,U2C A51G,0.84
2,U2C A66C,0.66
3,U3C U124C,0.9
4,A5C A60G,1.88
5,A4G U43C,1.35
6,A4G A111G,0.1
7,A4U A13G,1.23
8,U2A U108C,0.04
9,A5C A116G,0.83
10,U3A A125G,0.39
11,U2A C45A,1.82
12,U3A U130G,0.73
13,U2C A54U,1.61
14,U2C A54G,0.68
15,U3A A92G,1.3
16,U3A U70A,1.46
17,U3C U87C,0.63
18,U2A U26C,0.99
19,U3C A22G,1.33
20,U2C C76A,0.1
21,A4G C42U,0.81
22,U2C C112U,0
23,U2C C10U,1.04
24,U3C A140G,0.65

row,Variant,self-cleavage
1,U3C G7A,0.99
2,A4U A30U,1.05
3,A4G A56U,0.65
4,A4G G137U,2
5,A4G G74C,0.36
6,U2C G14A,1.39
7,A4G A67G,1.16
8,A4G A22G,1.17
9,U2C A69U,1.15
10,U2C A47G,1.28
11,U2C A47U,0.86
12,U2G A63C,0.7
13,A4G A114G,0.76
14,U3C G48A,0.97
15,A4U U57G,0.74
16,U3A A47U,1.18
17,U2C U124C,0.42
18,A5C U100C,1.25
19,U2C G136A,1.66
20,A4U U19C,0.7
21,A4G A126G,1.09
22,U2C U72G,0.19
23,U2C A52U,0.38
24,U2A C77U,1.39

row,Variant,self-cleavage
1,U3A A22G,1.2
2,U2C U26G,0.72
3,U2C U26C,1.2
4,U3C A96U,1.02
5,U3C A96G,1.3
6,U2C A68G,1.13
7,U3C C109G,0.04
8,A4G A30G,0.64
9,U3C U57C,1.28
10,U3C U57A,0.88
11,U2G,0.92
12,U2C,0.88
13,A4G C88U,0.96
14,A4G C88G,1.46
15,U2C A129G,0.75
16,U2C A129U,0.84
17,U3G A11U,0.74
18,U3C U97C,1.12
19,U2C U102A,0.73
20,U2C U102C,0.64
21,A4U A36U,1.62
22,A5C U87C,0.73
23,U3A A18G,1.11
